Data from PMC8038350, “Nordihydroguaiaretic Acid as a Novel Substrate and Inhibitor of Catechol O-Methyltransferase Modulates 4-Hydroxyestradiol-Induced Cyto- and Genotoxicity in MCF-7 Cells” (Molecules, 2021).

Substrate: [H][C@@]12CCc3c(ccc(O)c3O)[C@@]1([H])CC[C@]1(C)[C@@H](O)CC[C@@]21[H]
Test: enzyme kinetics of O-methylation by recombinant COMT, HPLC-DAD (Km)
Format: biochemical, Homo sapiens
Details: S-adenosyl-L-methionine (SAM)

B1: catechol O-methyl transferase (COMT) (Homo sapiens) (protein)
chain: MGDTKEQRILNHVLQHAEPGNAQSVLEAIDTYCEQKEWAMNVGDKKGKIVDAVIQEHQPSVLLELGAYCGYSAVRMARLLSPGARLITIEINPDCAAITQRMVDFAGVKDKVTLVVGASQDIIPQLKKKYDVDTLDMVFLDHWKDRYLPDTLLLEECGLLRKGTVLLADNVICPGAPDFLAHVRGSSCFECTHYQSFLEYREVVDGLEKAIYKGPGSEAGP
notes: recombinant human soluble COMT, hexahistidine-tagged
Mg2+
  Km: 37.9 µM
Mg2+ docking only: active site, hydrogen bonds with Glu199 and Asn170
  Vmax: 3.26 µmol/min/mg
